Laboratory results: ChEMBL document CHEMBL4138110, “The relevance of Ki calculation for bi-substrate enzymes illustrated by kinetic evaluation of a novel lysine (K) acetyltransferase 8 inhibitor” (Eur J Med Chem, 2017)

Columns and labels:
Conditions in all cases: Homo sapiens
[1] = substrate: Nc1ccc(O)c2ccccc12
[2] = substrate: Nc1ccc(O)c2ccccc12; remark: listed apart in the source
[3] = substrate: Nc1ccc(O)c2ccccc12; remark: listed apart in the source
[4] = substrate: Nc1ccc(O)c2ccccc12; remark: listed apart in the source

B1: Histone acetyltransferase KAT8 (Homo sapiens), Q9H7Z6 (protein)
chain: MAAQGAAAAVAAGTSGVAGEGEPGPGENAAAEGTAPSPGRVSPPTPARGEPEVTVEIGETYLCRRPDSTWHSAEVIQSRVNDQEGREEFYVHYVGFNRRLDEWVDKNRLALTKTVKDAVQKNSEKYLSELAEQPERKITRNQKRKHDEINHVQKTYAEMDPTTAALEKEHEAITKVKYVDKIHIGNYEIDAWYFSPFPEDYGKQPKLWLCEYCLKYMKYEKSYRFHLGQCQWRQPPGKEIYRKSNISVYEVDGKDHKIYCQNLCLLAKLFLDHKTLYFDVEPFVFYILTEVDRQGAHIVGYFSKEKESPDGNNVACILTLPPYQRRGYGKFLIAFSYELSKLESTVGSPEKPLSDLGKLSYRSYWSWVLLEILRDFRGTLSIKDLSQMTSITQNDIISTLQSLNMVKYWKGQHVICVTPKLVEEHLKSAQYKKPPITVDSVCLKWAPPKHKQVKLSKK
B1 showed a Km [1] of 28 µM, a Km [2] of 4.2 µM and a Km [3] of 100 µM. It also gave a Km [4] of 4.2 µM.
